The assay deals with T1, recombinant Tie2-Fc fusion protein (R&D systems) (UniProt Q02763 23-745).
T1 construct: not shown: Fc part
The assay is described as follows: Biacore 8K, Ang2 amine-coupled, Tie2-Fc as analyte, single-cycle kinetics. In general terms: Surface plasmon resonance follows binding to a sensor surface in real time, without labels.

Usually Kd stands for the equilibrium constant for the complex coming apart.

T1 sequence (Q02763 23-745 limits assumed): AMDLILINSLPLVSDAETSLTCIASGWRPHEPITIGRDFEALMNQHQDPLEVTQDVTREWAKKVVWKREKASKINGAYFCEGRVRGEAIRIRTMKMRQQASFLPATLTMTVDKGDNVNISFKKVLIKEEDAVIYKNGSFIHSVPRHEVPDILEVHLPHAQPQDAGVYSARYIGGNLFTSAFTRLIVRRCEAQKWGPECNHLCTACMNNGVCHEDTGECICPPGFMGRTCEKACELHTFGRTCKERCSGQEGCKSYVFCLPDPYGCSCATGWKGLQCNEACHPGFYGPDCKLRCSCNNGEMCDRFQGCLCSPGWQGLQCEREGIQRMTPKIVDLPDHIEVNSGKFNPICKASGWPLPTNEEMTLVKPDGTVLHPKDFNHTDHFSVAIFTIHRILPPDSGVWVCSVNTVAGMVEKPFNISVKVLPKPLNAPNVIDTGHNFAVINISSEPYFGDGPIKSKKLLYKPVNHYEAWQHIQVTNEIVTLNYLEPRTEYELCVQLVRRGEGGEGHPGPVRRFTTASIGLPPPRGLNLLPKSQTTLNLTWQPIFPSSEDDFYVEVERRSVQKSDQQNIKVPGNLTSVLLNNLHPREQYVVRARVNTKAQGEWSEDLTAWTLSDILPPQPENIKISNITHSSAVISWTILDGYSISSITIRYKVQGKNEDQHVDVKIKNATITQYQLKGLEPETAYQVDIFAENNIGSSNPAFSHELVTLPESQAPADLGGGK

B1: human recombinant Ang2 protein (ligand, UniProt O15123 19-496, looked up)
chain: YNNFRKSMDSIGKKQYQVQHGSCSYTFLLPEMDNCRSSSSPYVSNAVQRDAPLEYDDSVQRLQVLENIMENNTQWLMKLENYIQDNMKKEMVEIQQNAVQNQTAVMIEIGTNLLNQTAEQTRKLTDVEAQVLNQTTRLELQLLEHSLSTNKLEKQILDQTSEINKLQDKNSFLEKKVLAMEDKHIIQLQSIKEEKDQLQVLVSKQNSIIEELEKKIVTATVNNSVLQKQQHDLMETVNNLLTMMSTSNSAKDPTVAKEEQISFRDCAEVFKSGHTTNGIYTLTFPNSTEEIKAYCDMEAGGGGWTIIQRREDGSVDFQRTWKEYKVGFGNPSGEYWLGNEFVSQLTNQQRYVLKIHLKDWEGNEAYSLYEHFYLSSEELNYRIHLKGLTGTAGKISSISQPGNDFSTKDGDNDKCICKCSQMLTGGWWFDACGPSNLNGMYYPQRQNTNKFNGIKWYYWKGSGYSLKATTMMIRPADF
notes: also called rhAng2; angiopoietin-2
As for B1, the Kd stood at 4.26 nM.

The values above are taken from patent publication WO2022059800A1 (dated 2022).
